In FireProtDB (doi:10.1016/s1570-9639(02)00548-4):
“And” between values parts separate entries of the source, which are not always exact repeats. Equal entries are not always repeated.

Conditions: pH 6, cacodylate 0.03 M, reversible: yes; for denaturant m value / denaturant midpoint (higher = more stable) / unfolding free energy: 25 °C, GdnHCl, KCl 0.1 M
[1] = Equus caballus, Thermal, CD, KCl

Chain of Cytochrome c wild type, P00004 (P00004 whole entry): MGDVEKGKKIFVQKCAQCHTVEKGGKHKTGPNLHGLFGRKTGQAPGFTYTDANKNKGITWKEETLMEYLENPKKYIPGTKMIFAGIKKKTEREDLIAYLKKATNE
Chain of Cytochrome c wild type, P62894 (P62894 whole entry): as the sequence (P00004 whole entry) above, with T48S, K61G, T90G counted along it

| Substance | denaturant m value (Equus caballus, Absorbance) | denaturant midpoint (higher = more stable) (Equus caballus, Absorbance) | unfolding free energy (Equus caballus, Absorbance) | denaturant m value (Equus caballus, CD) | denaturant midpoint (higher = more stable) (Equus caballus, CD) | unfolding free energy (Equus caballus, CD) | Tm [1] | unfolding enthalpy (van 't Hoff) [1] | denaturant m value (Bos taurus, Absorbance) | denaturant midpoint (higher = more stable) (Bos taurus, Absorbance) | unfolding free energy (Bos taurus, Absorbance) | denaturant m value (Bos taurus, CD) | denaturant midpoint (higher = more stable) (Bos taurus, CD) | unfolding free energy (Bos taurus, CD) |
| --- | --- | --- | --- | --- | --- | --- | --- | --- | --- | --- | --- | --- | --- | --- |
| Cytochrome c wild type, P00004 | 3.53 kcal/mol/M and 2.49 kcal/mol/M and 2.87 kcal/mol/M | 2.49 M and 2.35 M and 2.37 M | 8.83 kcal/mol and 6.01 kcal/mol and 6.81 kcal/mol | 2.69 kcal/mol/M and 3.48 kcal/mol/M and 3.39 kcal/mol/M | 2.5 M and 2.4 M and 2.45 M | 6.71 kcal/mol and 8.36 kcal/mol and 8.31 kcal/mol | 26.8 °C | 19.1 kcal/mol | – | – | – | – | – | – |
| Cytochrome c wild type, P62894 | – | – | – | – | – | – | – | – | 3.95 kcal/mol/M | 2.65 M | 10.5 kcal/mol | 4.02 kcal/mol/M and 4.03 kcal/mol/M and 3.91 kcal/mol/M | 2.63 M and 2.61 M | 10.6 kcal/mol and 10.2 kcal/mol |
